Test results from PMC8528861 (2021).
Where no end group is shown, it is not given here. [ ]: non-standard residue; d: D form. pY = N[C@@H](Cc1ccc(OP(=O)(O)O)cc1)C(=O)O

Key:
Assay in all cases: SPR
mouse SH2B SH2 domain = mouse SH2B SH2 domain (mouse, UniProt Q91ZM2 527-625)
[1] = biological target: M. musculus LNK SH2 domain (residues 324–446), wild type (mouse, UniProt O09039 324-446)
[2] = biological target: M. musculus LNK SH2 domain R387H (mouse, UniProt O09039 325-438, R387H)
[3] = biological target: M. musculus LNK SH2 domain R387C (mouse, UniProt O09039 325-438, R387C)
Chain of M. musculus LNK SH2 domain R387C (O09039 325-438 R387C): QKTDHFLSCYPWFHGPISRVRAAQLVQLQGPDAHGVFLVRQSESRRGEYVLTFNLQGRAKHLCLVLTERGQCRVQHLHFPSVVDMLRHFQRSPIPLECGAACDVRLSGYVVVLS

Chain of M. musculus LNK SH2 domain (residues 324–446), wild type (O09039 324-446): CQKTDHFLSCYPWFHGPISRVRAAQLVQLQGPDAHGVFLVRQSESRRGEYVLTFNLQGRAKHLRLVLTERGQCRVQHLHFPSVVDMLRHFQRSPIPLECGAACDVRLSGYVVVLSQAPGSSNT
Chain of M. musculus LNK SH2 domain R387H (O09039 325-438 R387H): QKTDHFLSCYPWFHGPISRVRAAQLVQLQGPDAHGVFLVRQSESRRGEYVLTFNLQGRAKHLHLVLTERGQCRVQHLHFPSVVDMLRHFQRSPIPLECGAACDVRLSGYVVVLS

Kd (mouse SH2B SH2 domain): 108 nM | Kd [1]: 27 nM | Kd [2]: 242 nM | Kd [3]: 76 nM
Binder: FTPD[pY]ELLTEND (also: biotin, site not given here) [biotinylated JAK2 pY813 peptide]
